Experimental data taken from US20110250130A1 (AbbVie / Abbott, published 2011).
Residue numbers refer to the chain shown, from its start.

B1: AB256 (antibody, V domains shown)
VH: EVQLVESGGGLVQPGGSLRLSCAVSGFTLSDYGVNWVRQAPGKGLEWLGMIWGDGSTDYDSTLKSRLTISKDNSKSTIYLQMNSLRAEDTAVYYCAREWHHGPVAYWGQGTLVTVSS
VL: DIQMTQSPSSLSASVGDRVTITCKASQAVSSAVAWYQQKPGKAPKLLIYWASTRHTGVPSRFSGSGSGTDFTLTISSLQPEDFATYYCQQHYSTPFTFGQGTKLEIK
notes: also called hMAK195VH.2a / hMAK195VL.1
B2: AB262 (antibody, V domains shown)
VH: B1 VH with V24A, L48V, G49S, L67F, S76N, I78L
VL: EIVMTQSPATLSLSPGERATLSCKASQAVSSAVAWYQQKPGQAPRLLIYWASTRHTGIPARFSGSGSGTDFTLTISSLQPEDFAVYYCQQHYSTPFTFGQGTKLEIK
notes: also called hMAK195VH.2b / hMAK195VL.2
B3: AB263 (antibody, V domains shown)
VH: B1 VH with V24A, L48V, G49S, L67F, S76N, I78L
VL: B2 VL with A43S, I58V
notes: also called hMAK195VH.2b / hMAK195VL.2a
B4: AB257 (antibody, V domains shown)
VH: B1 VH
VL: B1 VL with A43S
notes: also called hMAK195VH.2a / hMAK195VL.1a
B5: AB259 (antibody, V domains shown)
VH: B1 VH
VL: B2 VL with A43S, I58V
notes: also called hMAK195VH.2a / hMAK195VL.2a
B6: AB261 (antibody, V domains shown)
VH: B1 VH with V24A, L48V, G49S, L67F, S76N, I78L
VL: B1 VL with A43S
notes: also called hMAK195VH.2b / hMAK195VL.1a
B7: AB258 (antibody, V domains shown)
VH: B1 VH
VL: B2 VL
notes: also called hMAK195VH.2a / hMAK195VL.2
B8: AB254 (antibody, V domains shown)
VH: B1 VH with V24A, L29F, L48V, G49S, L67F, K71R, S76N, I78L
VL: B2 VL
notes: also called hMAK195VH.2 / hMAK195VL.2
B9: AB255 (antibody, V domains shown)
VH: B1 VH with V24A, L29F, L48V, G49S, L67F, K71R, S76N, I78L
VL: B2 VL with A43S, I58V
notes: also called hMAK195VH.2 / hMAK195VL.2a

What was measured:
[1] = target: T1, Recombinant Human TNF-α/TNFSF1A (human, UniProt P01375 77-233); test: cell-based or functional assay
[2] = target: T1, Recombinant Human TNF-α/TNFSF1A; test: SPR (Biacore), antibody captured, TNF-α in solution
Procedure: The BIACORE assay (Biacore, Inc. Piscataway, N.J.) determines the affinity of antibodies with kinetic measurements of on-rate and off-rate constants. Binding of antibodies to a target antigen (for example, a purified recombinant target antigen) is determined by surface plasmon resonance-based measurements with a Biacore® 1000 or 3000 instrument (Biacore® AB, Uppsala, Sweden) using running HBS-EP (10 mM HEPES [pH 7.4], 150 mM NaCl, 3 mM EDTA, and 0.005% surfactant P20) at 25° C. All chemicals are obtained from Biacore® AB (Uppsala, Sweden) or otherwise from a different source as described in the text. For example, approximately 5000 RU of goat anti-mouse IgG, (Fcγ), fragment specific polyclonal antibody (Pierce Biotechnology Inc, Rockford, Ill., US) diluted in 10 mM sodium acetate (pH 4.5) is directly immobilized across a CM5 research grade biosensor chip using a standard amine coupling kit according to manufacturer's instructions and procedures at 25 μg/ml. Unreacted moieties on the biosensor surface are blocked with ethanolamine. Modified carboxymethyl dextran surface in flowcell 2 and 4 is used as a reaction surface. Unmodified carboxymethyl dextran without goat anti-mouse IgG in flow cell 1 and 3 is used as the reference surface. For kinetic analysis, rate equations derived from the 1:1 Langmuir binding model are fitted simultaneously to association and dissociation phases of all eight injections (using global fit analysis) with the use of Biaevaluation 4.0.1 software. Purified antibodies are diluted in HEPES-buffered saline for capture across goat anti-mouse IgG specific reaction surfaces. Antibodies to be captured as a ligand (25 μg/ml) are injected over reaction matrices at a flow rate of 5 μl/minute. The association and dissociation rate constants, kₒₙ (M⁻¹s⁻¹) and koff (s⁻¹), are determined under a continuous flow rate of 25 μl/minute. Rate constants are derived by making kinetic binding measurements at different antigen concentrations ranging from 10-200 nM. The equilibrium dissociation constant (M) of the reaction between antibodies and the target antigen is then calculated from the kinetic rate constants by the following formula: KD=koff/kₒₙ. Binding is recorded as a function of time and kinetic rate constants are calculated. In this assay, on-rates as fast as 10⁶ M⁻¹s⁻¹ and off-rates as slow as 10⁻⁶ s⁻¹ can be measured.

T1 sequence (P01375 77-233 limits assumed): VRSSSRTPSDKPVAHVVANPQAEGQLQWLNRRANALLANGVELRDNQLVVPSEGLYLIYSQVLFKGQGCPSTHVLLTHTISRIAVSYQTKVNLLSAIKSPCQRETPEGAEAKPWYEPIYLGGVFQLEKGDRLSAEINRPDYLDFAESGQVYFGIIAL

| Binder | TNF-α neutralization assay IC50 (nM), L929 cells [1] | Kd [2] | koff [2] | kon [2] |
| --- | --- | --- | --- | --- |
| B1 | 0.058 nM | 50.5 pM | 0.000177 s⁻¹ | 3.54e+06 M⁻¹ s⁻¹ |
| B2 | 0.218 nM | 136 pM | 0.00029 s⁻¹ | 2.14e+06 M⁻¹ s⁻¹ |
| B3 | 0.193 nM | 169 pM | 0.000273 s⁻¹ | 1.61e+06 M⁻¹ s⁻¹ |
| B4 | 0.077 nM | 62 pM | 0.000217 s⁻¹ | 3.56e+06 M⁻¹ s⁻¹ |
| B5 | 0.071 nM | 67.7 pM | 0.000203 s⁻¹ | 3e+06 M⁻¹ s⁻¹ |
| B6 | 0.187 nM | 122 pM | 0.000285 s⁻¹ | 2.36e+06 M⁻¹ s⁻¹ |
| B7 | 0.078 nM | 81.6 pM | 0.000244 s⁻¹ | 3.04e+06 M⁻¹ s⁻¹ |
| B8 | 0.799 nM | 120 pM | 0.000287 s⁻¹ | 2.4e+06 M⁻¹ s⁻¹ |
| B9 | 0.477 nM | 148 pM | 0.000384 s⁻¹ | 2.62e+06 M⁻¹ s⁻¹ |
